US20240254248A1 (JIANGSU HENGRUI MEDICINE, published 2024)
Where two headings read alike, the source gives them in different places. Values belong to the binder of their own block, whether it stands above or below them.

Columns and labels:
[1] = biological target: T1, CD40 on HEK293-CD40 cells; experiment: binding to HEK293-CD40 cells
T1 construct: whole, on cells

human CD40 (hCD40) [2] = biological target: T2, human CD40 (hCD40) (human, UniProt P25942 21-193); experiment: ELISA blocking of hCD40/hCD40L binding
human CD40 (hCD40) [3] = biological target: T2, human CD40 (hCD40); experiment: ELISA blocking of hCD40/hCD40L binding; remark: listed apart in the source
[4] = biological target: T1, CD40 on HEK293-CD40 cells; experiment: binding to HEK293-CD40 cells; remark: listed apart in the source

T2 sequence (P25942 21-193 limits assumed): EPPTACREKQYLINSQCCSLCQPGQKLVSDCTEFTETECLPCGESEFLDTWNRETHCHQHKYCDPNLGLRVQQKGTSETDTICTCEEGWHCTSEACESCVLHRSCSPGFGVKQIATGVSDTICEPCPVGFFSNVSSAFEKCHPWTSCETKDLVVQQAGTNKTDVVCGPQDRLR
T1 sequence (P25942 21-277): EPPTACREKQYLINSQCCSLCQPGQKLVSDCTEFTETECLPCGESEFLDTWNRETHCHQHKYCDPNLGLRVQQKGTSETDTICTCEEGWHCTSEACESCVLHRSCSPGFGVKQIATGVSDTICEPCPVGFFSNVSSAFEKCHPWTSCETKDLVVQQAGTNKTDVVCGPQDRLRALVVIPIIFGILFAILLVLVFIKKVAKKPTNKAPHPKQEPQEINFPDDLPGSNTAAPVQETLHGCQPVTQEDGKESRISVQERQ

- EC50 [1]: 0.0333 µg/mL
- IC50 (human CD40 (hCD40) [2]): 0.122 µg/mL
B1: human-murine chimeric antibody 9E5-C (antibody, IgG1, V domains shown)
VH: QVQLQQPGADLVKPGASVKMSCKASGYILTTYWITWVKQRPGQGLEWIGDIHPGSGSTKYNEKFKSKATLTVDTSSSTAYMQLTRLSSEDSAVYYCARRDYWGQGTTLTVSS
VL: DVLMTQSPLSLPVSLGDQASISCRSSQNIVNSQGNTYLEWYLQKPGESPKLLIYKVTNRFSGVPDRFSGSGSGTDFTLKISRVEAEDLGVYYCFQASLVPWTFGGGTKLEIK
notes: also called 9E5 chimeric antibody

- IC50 (human CD40 (hCD40) [3]): 0.308 µg/mL
- EC50 [4]: 0.14 µg/mL
B2: humanized antibody hu9E5 (H1c heavy chain and L1a light chain) (antibody, human IgG1, kappa, V domains shown)
VH: QVQLVQSGAEVKKPGASVKVSCKASGYILTTYWITWVRQAPGQGLEWMGDIHPGSGSTKYNEKFKSRVTLTVDTSISTAYMELSRLRSEDTAVYYCARRDYWGQGTTVTVSS
VL: DIVMTQSPLSLPVTPGEPASISCRSSQNIVNSQGNTYLEWYLQKPGQSPQLLIYKVTNRFSGVPDRFSGSGSGTDFTLKISRVEAEDVGVYYCFQASLVPWTFGGGTKVEIKR
notes: also called Hu9E5-25
